Data: the supplement of paper PMC7125110
± gives the standard error. For part of these data: Fewer inactive variants are shown than the library holds.

B1: glmS ribozyme (parent)
chain: AUAAAAGCGCCAGAACUACAGAAAUGUAGUUGACGAGGAGGAGGUUUAUCGAAUUUUCGGCGGAUGCCUCCAAA

Experiments:
Conditions in all cases: with glucosamine-6-phosphate
glucosamine-6-phosphate [1] = variants of: B1; assay: kcat; higher = faster cleavage; RNA array
Method in brief: (§1)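 Over ~14 h at 37 °C, tiles were imaged as glucosamine-6-phosphate (40 μM to 10 mM) in HEPES/KCl/Mg(OAc)2 buffer flowed across sequenced MiSeq chips. The chips carried barcoded ribozyme variants transcribed in situ by E. coli RNA polymerase and tracked with a hybridised Cy3 probe. After normalisation to baseline and to non-cleaving reference variants, one- or two-exponential decay fits of per-tile medians gave kobs. kcat and KM followed from weighted Michaelis–Menten fits across concentrations.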

glucosamine-6-phosphate [2] = variants of: B1; assay: self-cleavage kobs at 640 uM GlcN6P; higher = faster cleavage; RNA array
Method in brief: as §1

glucosamine-6-phosphate [3] = variants of: B1; assay: self-cleavage kobs at 2500 uM GlcN6P; higher = faster cleavage; RNA array
Method in brief: as §1

glucosamine-6-phosphate [4] = variants of: B1; assay: self-cleavage kobs at 10000 uM GlcN6P; higher = faster cleavage; RNA array
Method in brief: as §1

glucosamine-6-phosphate [5] = variants of: B1; assay: KM; higher = weaker cofactor use; RNA array
Method in brief: as §1

glucosamine-6-phosphate [6] = variants of: B1; assay: self-cleavage kobs at 40 uM GlcN6P; higher = faster cleavage; RNA array
Method in brief: as §1

glucosamine-6-phosphate [7] = variants of: B1; assay: self-cleavage kobs at 160 uM GlcN6P; higher = faster cleavage; RNA array
Method in brief: as §1

Row | Variant | kcat (glucosamine-6-phosphate [1]) [s⁻¹] | self-cleavage kobs at 640 uM GlcN6P (glucosamine-6-phosphate [2]) [s⁻¹] | self-cleavage kobs at 2500 uM GlcN6P (glucosamine-6-phosphate [3]) [s⁻¹] | self-cleavage kobs at 10000 uM GlcN6P (glucosamine-6-phosphate [4]) [s⁻¹] | KM (glucosamine-6-phosphate [5]) [mM] | self-cleavage kobs at 40 uM GlcN6P (glucosamine-6-phosphate [6]) [s⁻¹] | self-cleavage kobs at 160 uM GlcN6P (glucosamine-6-phosphate [7]) [s⁻¹]
1 | AUAAAAGCGCCAGCAAUACAGAAAUGUAGUUGACGAGGAGGAGGUUUAUCGAAUUUUCGGCGGAUGCCUCCAAA [A14C C16A] | 6.62e-05 ± 7.2e-06 | 2.75e-05 ± 1.3e-05 | 6.73e-05 ± 1.1e-05 | 5.95e-05 ± 6.9e-06 | – | – | –
2 | AUAAAAGCGCCAUAACUACAGAAAUGUAGUUGACGAGGAGGAGGUUUAUCGGAUUUUCGGCGGAUGCCUCCAAA [G13U A52G] | 7e-05 ± 5.1e-06 | – | 6.21e-05 ± 1.3e-05 | 6.34e-05 ± 7e-06 | 0.817 ± 0.37 | < 1e-05 | –
3 | AUAAAAGCGCCAUAACUACAGAAAUGUAUUUGACGAGGAGGAGGUUUAUCGAAUUUUCGGCGGAUGCCUACAAA [G13U G29U C70A] | 3.94e-05 ± 1.3e-05 | – | 4.33e-05 ± 1.9e-05 | – | – | – | –
4 | AUAAAAGCGCCAGCACUACAGAAAUGUAGUUGACGAGGAGGAGGUUUAUCGAUUUUUCGGCGGAUGCCUCCAAA [A14C A53U] | 0.00451 ± 0.00085 | 0.000737 ± 0.00012 | 0.00214 ± 0.00026 | 0.0035 ± 0.00029 | 2.93 ± 0.79 | 7.8e-05 ± 7.6e-06 | 0.000184 ± 2.7e-05
5 | AUAAAAGCGCCAUAACUACAGAAAUGUAGUUGACGAGGAGGAGGUUUAUCGAAAUUUCGGCGGAUGCCUCCAAA [G13U U54A] | 0.00184 ± 0.00033 | 0.000283 ± 5.5e-05 | 0.00105 ± 0.00017 | 0.00144 ± 0.00015 | 2.69 ± 0.77 | 4.3e-05 ± 9.5e-06 | 0.000103 ± 1.6e-05
6 | AUAAAAGCGCCAGCACUACAGAAAUGUAGUUGCCGAGGAGGAGGUUUAUCGAAUUUUCGGCGGAUGCCUCCAAA [A14C A33C] | < 1e-05 | < 1e-05 | – | – | – | < 1e-05 | –
7 | AUAAAAGCGCCAUAACUACAGAAAUGUAGUUGACGAGGAGAAGGUUUAUCGAAUUUUCGGCGGAUGCCUCCAAA [G13U G41A] | 5.17e-05 ± 3.4e-06 | – | 2.17e-05 ± 8.2e-06 | 3.81e-05 ± 9.2e-06 | 3.54 ± 0.6 | – | –
8 | AUAAAAGCGCCAGCACUACAGAAAUGUAGUUGACGAGGAAGAGGUUUAUCGAAUUUUCGGCGGAUGCCUCCAAA [A14C G40A] | 0.00106 ± 0.00042 | 0.000371 ± 5.8e-05 | 0.000306 ± 8.2e-05 | 0.00112 ± 0.00011 | – | 3.61e-05 ± 8.7e-06 | 8.2e-05 ± 1.6e-05
9 | AUAAAAGCGCCAUAACUACAGAAAUGUAGUUGACGAGGAGGGGGAUUAUCGAAUUUUCGGCGGAUGCCUCCAAA [G13U A42G U45A] | 0.00154 ± 0.00051 | 0.000169 ± 6.2e-05 | 0.000951 ± 0.00031 | 0.00104 ± 0.00021 | – | – | –
10 | AUAAAAGCGCCAGCACUACAGAAAUGUAGUUGACGAGGAGGAGGUUUUUCGAAUUUUCGGCGGAUGCCUCCAAA [A14C A48U] | 5.62e-05 ± 5.4e-06 | – | – | 4.26e-05 ± 7.7e-06 | 3.17 ± 1.2 | – | –
11 | AUAAAAGCGCCAGCACUACAGAAAUGUAGUUGACGAGGAGGAGGUUUAUCGAAUUUUCGGCGGAUGCCUCAAAA [A14C C71A] | 0.00106 ± 0.00051 | 0.000194 ± 3.2e-05 | 0.000353 ± 5.6e-05 | 0.000984 ± 0.00013 | – | 3.61e-05 ± 1.7e-05 | 0.000121 ± 3.2e-05
12 | AUAAAAGCGCCAUAACUACAGAAAUGUAGUUGACGAGGAGGAGGUUUAUGGCAUUUUCGGCGGAUGCCUCCAAA [G13U C50G A52C] | 1.8e-05 ± 3e-06 | – | – | – | – | – | –
13 | AUAAAAGCGCCAUAAAUACAGAAAUGUAGUUGACGAGGAGGAGGUUUAUCGAAUUUUCGGCGGAUGCCUCCAAA [G13U C16A] | 0.000283 ± 1.2e-05 | 3.79e-05 ± 1.2e-05 | 0.0001 ± 2.2e-05 | 0.000198 ± 2.6e-05 | 4.34 ± 0.37 | – | –
14 | AUAAAAGCGCCAUAAGUACAGAAAUGUAGUUGACGAGGAGGAGGUUUAUCGAAUUUUCGGCGGAUGCCUCCAAA [G13U C16G] | 0.000981 ± 0.00012 | 0.000112 ± 1.7e-05 | 0.000305 ± 6e-05 | 0.000653 ± 0.0001 | 5.17 ± 0.95 | – | –
15 | AUAAAAGCGCCAUAAUUACAGAAAUGUAGUUGACGAGGAGGAGGUUUAUCGAAUUUUCGGCGGAUGCCUCCAAA [G13U C16U] | 0.00286 ± 0.00057 | 0.0004 ± 6.9e-05 | 0.00139 ± 0.00026 | 0.0021 ± 0.0003 | 3.43 ± 1 | 4.83e-05 ± 1.1e-05 | 0.000115 ± 2.9e-05
16 | AUAAAAGCGCCAUAACUACAGAAAUGUAGUUGACGAGGAGGAGGUUUAUCGAAUUUUUGGCGGAUGGCUCCAAA [G13U C58U C67G] | 2.59e-05 ± 5.8e-06 | – | – | – | – | – | –
17 | AUAAAAGCGCCAUAACUACAGAAAUGUAGUUGACGAGGAGGAGGUUUAUCGAAUUUUCGGCGGAUGCCUCGAAA [G13U C71G] | 5.14e-05 ± 2.7e-06 | 3.7e-05 ± 9e-06 | 5.35e-05 ± 1e-05 | 5.01e-05 ± 5.6e-06 | 0.155 ± 0.074 | – | –
